Test [1] has as its target Paclitaxel-stabilised microtubules containing 10% X-rhodamine-labelled and 10% biotin-labelled tubulin (porcine) (UniProt P02550).
Test [2] has as its target Paclitaxel-stabilised microtubules of unlabelled porcine brain tubulin (porcine) (UniProt P02550).
Test [3] concerns the target P. falciparum kinesin-8X motor domain with C-terminal SNAPf tag, biotinylated (Pfkinesin-8X-MD-SNAP) (P. falciparum).
For test [4], the target named is P. berghei kinesin-8X motor domain with C-terminal SNAPf tag, biotinylated (Pbkinesin-8X-MD-SNAP) (P. berghei).

Take “P. falciparum kinesin-8X motor domain (Pfkinesin-8X-MD) (domain or fragment)”: in test [1], the MT depolymerization rate with AMPPNP (TIRF microscopy, 2.5 uM motor domain, 5 mM nucleotide, room temperature) worked out at 0.3 nm/s and the MT depolymerization rate with ATP (TIRF microscopy, 2.5 uM motor domain, 5 mM nucleotide, room temperature) was determined as 0.5 nm/s. For the same substance, in test [2], the MT-stimulated ATPase activity, K1/2(MT) (enzyme-coupled assay, 250 nM motor domain, 0-6 uM paclitaxel-stabilised MTs, 26°C) stood at 1.3 µM and the MT-stimulated ATPase activity, Vmax (enzyme-coupled assay, 26°C) is 6.5 ATP/s.

Take “Paclitaxel-stabilised microtubules containing 10% X-rhodamine-labelled tubulin (from UniProt P02550 1-451) (complex)”: the MT gliding velocity on surface-held biotinylated motor domain (TIRF microscopy, 5 mM ATP, room temperature) in test [3] came to 3.7 nm/s; in test [4], 17.8 nm/s.

For “P. berghei kinesin-8X motor domain (Pbkinesin-8X-MD) (domain or fragment)”, in test [1], the MT depolymerization rate with AMPPNP (TIRF microscopy, 2.5 uM motor domain, 5 mM nucleotide, room temperature) was found to be 1.8 nm/s and the MT depolymerization rate with ATP (TIRF microscopy, 2.5 uM motor domain, 5 mM nucleotide, room temperature) was 4.3 nm/s. Also, in test [2], the MT-stimulated ATPase activity, K1/2(MT) (enzyme-coupled assay, 250 nM motor domain, 0-6 uM paclitaxel-stabilised MTs, 37°C) came out at 2.2 µM and the MT-stimulated ATPase activity, Vmax (enzyme-coupled assay, 37°C) worked out at 2.2 ATP/s.
